T1: Cdc24 (S. cerevisiae) (UniProt P11433)
T1 sequence: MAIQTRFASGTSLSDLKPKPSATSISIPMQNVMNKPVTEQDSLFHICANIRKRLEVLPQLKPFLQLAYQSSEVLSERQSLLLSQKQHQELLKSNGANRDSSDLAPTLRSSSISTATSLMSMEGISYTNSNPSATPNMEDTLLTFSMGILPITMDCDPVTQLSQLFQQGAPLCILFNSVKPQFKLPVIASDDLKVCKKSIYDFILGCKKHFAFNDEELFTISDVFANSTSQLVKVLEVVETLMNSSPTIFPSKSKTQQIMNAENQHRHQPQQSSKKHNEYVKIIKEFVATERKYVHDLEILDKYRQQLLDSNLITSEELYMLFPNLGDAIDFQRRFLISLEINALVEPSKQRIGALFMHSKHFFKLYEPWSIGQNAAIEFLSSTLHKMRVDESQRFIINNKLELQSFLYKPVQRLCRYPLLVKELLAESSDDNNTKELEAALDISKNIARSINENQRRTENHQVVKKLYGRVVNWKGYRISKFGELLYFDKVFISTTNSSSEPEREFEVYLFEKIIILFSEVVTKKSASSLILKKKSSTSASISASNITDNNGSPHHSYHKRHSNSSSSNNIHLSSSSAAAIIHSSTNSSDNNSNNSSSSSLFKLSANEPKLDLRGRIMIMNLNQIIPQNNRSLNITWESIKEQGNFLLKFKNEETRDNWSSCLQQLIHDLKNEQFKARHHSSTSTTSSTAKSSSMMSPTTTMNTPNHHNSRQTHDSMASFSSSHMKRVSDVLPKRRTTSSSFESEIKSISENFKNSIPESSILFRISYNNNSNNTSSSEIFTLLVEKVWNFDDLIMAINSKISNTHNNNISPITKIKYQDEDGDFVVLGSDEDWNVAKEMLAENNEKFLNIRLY


Assays:
[1] = target: the molecule itself; assay: SEC-MALS; single purified proteins; Superdex 200 Increase 10/300 GL, SEC buffer (50 mM Tris-HCl pH 7.5, 100 mM NaCl, 10 mM MgCl2, 1 mM 2-mercaptoethanol) with 0.02% sodium azide, 0.5 mL/min; samples 5.7–7.1 µM; fractions analysed by SDS-PAGE and anti-His western blot
[2] = target: T1, Cdc24 (S. cerevisiae)
[3] = target: Cdc24-DH3 (incl. mutation L339A, E340A) (S. cerevisiae) (UniProt P11433)

| interaction (synergy) rate k3,X1,X2 of Cdc42 GTPase cycling in Cdc42–Cdc24–Rga2 ((II)) mixtures (GTPase-Glo assay) [2] [µM^−4 h^−1] | interaction (synergy) rate k3,X1,X2 of Cdc42 GTPase cycling in Cdc42–Cdc24–Rga2(I) mixtures (GTPase-Glo assay) [2] [µM^−4 h^−1] | rate k3,Cdc24-DH3 of Cdc42 GTPase cycling (GTPase-Glo assay) [3] [µM^−2 h^−1] | Binder | binding result [1] |
| --- | --- | --- | --- | --- |
| – | – | – | GAP domain (aa 797–981 from Rga2) (domain or fragment, S. cerevisiae, UniProt Q06407 797-981, looked up, Rga2 GAP domain, S. cerevisiae, aa 797–981 (Smith et al, 2002); plasmid pRV138; also called Rga2's GAP domain; pRV138; source: E. coli BL21 DE3 pLysS, purified (HisTrap Excel, SEC Sephacryl S-300)) EKSTVPIIIRCCIDRIEKDDIGLNMEGLYRKSGSQTLVEEIENEFAQNNSLHSDTLSPKLNALLNQDIHAVASVLKRYLRKLPDPVLSFSIYDALIDLVRNNQLIERLPLNNDKFLDSPQKVTIYEMVLKSLLEIFKILPVEHQEVLKVLAAHIGKVRRCSERNLMNLHNLSLVFAPSLIHDFDG | binds |
| 51.7 | 87 | – | His-Rga2 (Rga2 tagged with an N-terminal 6His purification tag) (enzyme, S. cerevisiae, UniProt Q06407 1-1009, looked up, plasmid pRV014; Found only as higher-order oligomers in SEC-MALS; also called Rga2(I); pRV014; source: E. coli BL21 DE3 pLysS, purified (HisTrap Excel, SEC Sephacryl S-300); not shown: His6, N-terminal, kept) MSADPINDQSSLCVRCNKSIASSQVYELESKKWHDQCFTCYKCDKKLNADSDFLVLDIGTLICYDCSDKCTNCGDKIDDTAIILPSSNEAYCSNCFRCCRCSNRIKNLKYAKTKRGLCCMDCHEKLLRKKQLLLENQTKNSSKEDFPIKLPERSVKRPLSPTRINGKSDVSTNNTAISKNLVSSNEDQQLTPQVLVSQERDESSLNDNNDNDNSKDREETSSHARTVSIDDILNSTLEHDSNSIEEQSLVDNEDYINKMGEDVTYRLLKPQRANRDSIVVKDPRIPNSNSNANRFFSIYDKEETDKDDTDNKENEIIVNTPRNSTDKITSPLNSPMAVQMNEEVEPPHGLALTLSEATKENNKSSQGIQTSTSKSMNHVSPITRTDTVEMKTSTSSSTLRLSDNGSFSRPQTADNLLPHKKVAPSPNKKLSRSFSLKSKNFVHNLKSKTSEMLDPKHPHHSTSIQESDTHSGWGVSSTHTNIRKSKAKKNPVSRGQSDSTIYNTLPQHGNFTVPEFNHKKAQSSLGSISKKQNSNDTATNRRINGSFTSSSSGHHIAMFRTPPLESGPLFKRPSLSSESAHHRSSSLQTSRSTNALLEDDSTKVDATDESATSLEKDFYFTELTLRKLKLDVRELEGTKKKLLQDVENLRLAKERLLNDVDNLTREKDKQSASSRESLEQKENIATSITVKSPSSNSDRKGSISNASPKPRFWKIFSSAKDHQVGDLESQQRSPNSSSGGTTNIAQKEISSPKLIRVHDELPSPGKVPLSPSPKRLDYTPDGSHLYGSSLQARCAYEKSTVPIIIRCCIDRIEKDDIGLNMEGLYRKSGSQTLVEEIENEFAQNNSLHSDTLSPKLNALLNQDIHAVASVLKRYLRKLPDPVLSFSIYDALIDLVRNNQLIERLPLNNDKFLDSPQKVTIYEMVLKSLLEIFKILPVEHQEVLKVLAAHIGKVRRCSERNLMNLHNLSLVFAPSLIHDFDGEKDIVDMKERNYIVEFILGNYRDIFKQA | binds |
| – | – | 0.702 | Cdc24-DH3 (incl. mutation L339A, E340A) (enzyme) MAIQTRFASGTSLSDLKPKPSATSISIPMQNVMNKPVTEQDSLFHICANIRKRLEVLPQLKPFLQLAYQSSEVLSERQSLLLSQKQHQELLKSNGANRDSSDLAPTLRSSSISTATSLMSMEGISYTNSNPSATPNMEDTLLTFSMGILPITMDCDPVTQLSQLFQQGAPLCILFNSVKPQFKLPVIASDDLKVCKKSIYDFILGCKKHFAFNDEELFTISDVFANSTSQLVKVLEVVETLMNSSPTIFPSKSKTQQIMNAENQHRHQPQQSSKKHNEYVKIIKEFVATERKYVHDLEILDKYRQQLLDSNLITSEELYMLFPNLGDAIDFQRRFLISAAINALVEPSKQRIGALFMHSKHFFKLYEPWSIGQNAAIEFLSSTLHKMRVDESQRFIINNKLELQSFLYKPVQRLCRYPLLVKELLAESSDDNNTKELEAALDISKNIARSINENQRRTENHQVVKKLYGRVVNWKGYRISKFGELLYFDKVFISTTNSSSEPEREFEVYLFEKIIILFSEVVTKKSASSLILKKKSSTSASISASNITDNNGSPHHSYHKRHSNSSSSNNIHLSSSSAAAIIHSSTNSSDNNSNNSSSSSLFKLSANEPKLDLRGRIMIMNLNQIIPQNNRSLNITWESIKEQGNFLLKFKNEETRDNWSSCLQQLIHDLKNEQFKARHHSSTSTTSSTAKSSSMMSPTTTMNTPNHHNSRQTHDSMASFSSSHMKRVSDVLPKRRTTSSSFESEIKSISENFKNSIPESSILFRISYNNNSNNTSSSEIFTLLVEKVWNFDDLIMAINSKISNTHNNNISPITKIKYQDEDGDFVVLGSDEDWNVAKEMLAENNEKFLNIRLY | – |
